In experiment [1] the target is T1, Recombinant Human DLL4 (R&D Systems Cat#1506-D4/CF) (human, UniProt Q9NR61 27-524).
T1 construct: Bought recombinant protein; also called delta-like protein 4; Delta-like 4
As to the kind of experiment: ECL (Meso Scale Discovery) multispot binding assay, DLL4 immobilised, Fab at 100 nM.

Experiment [2] has as its target T2, Recombinant Human DLL4 (delta-like protein 4) (human, UniProt Q9NR61 27-524).
T2 construct: Bought recombinant human DLL4 coated on the ELISA plate; also called rHuman DLL4
As to the kind of experiment: ELISA, DLL4 coated on plate, Fab at 25 nM (2-fold dilution series), absorbance at 450 nm.

The target of experiment [3] is T2, Recombinant Human DLL4 (delta-like …). As to the kind of experiment: ELISA, DLL4 coated on plate, Fab at 50 nM (2-fold dilution series), absorbance at 450 nm.
Experiment [4] shares this target. As to the kind of experiment: ELISA, DLL4 coated on plate, Fab at 100 nM (2-fold dilution series), absorbance at 450 nm.
Experiment [5] has the same target. As to the kind of experiment: ELISA, DLL4 coated on plate, Fab at 12.5 nM (2-fold dilution series), absorbance at 450 nm.

B1: Fab VH5-51_IGHD5-18*01>3_IGHJ4*01 G100K/G104T (H:KT) & V3-4_IGLJ1*01 G23A (Fab, V domains shown)
VH: EVQLVQSGAEVKKPGESLKISCKGSGYSFTSYWIGWVRQMPGKGLEWMGIIYPGDSDTRYSPSFQGQVTISADKSISTAYLQWSSLKASDTAMYYCARRKYSYTYDYFDYWGQGTLVTVSS
VL: QTVVTQEPSFSVSPGGTVTLTCALSSGSVSTSYYPSWYQQTPGQAPRTLIYSTNTRSSGVPDRFSGSILGNKAALTITGAQADDESDYYCVLYMGSGISYVFGTGTKVTVL
notes: Fab expressed in E. coli; Plasmid A adds CH1 with His6 and Flag tags to the heavy chain; Plasmid E adds lambda CL to the light chain; also called G100K/G104T & G23A
With B1, the “ECL signal” value in experiment [1] was 13500.

B2: Fab VH5-51_IGHD5-18*01>3_IGHJ4*01 G100K/G104T (H:KT) & V3-4_IGLJ1*01 S26A (Fab, V domains shown)
VH: EVQLVQSGAEVKKPGESLKISCKGSGYSFTSYWIGWVRQMPGKGLEWMGIIYPGDSDTRYSPSFQGQVTISADKSISTAYLQWSSLKASDTAMYYCARRKYSYTYDYFDYWGQGTLVTVSS
VL: QTVVTQEPSFSVSPGGTVTLTCGLSAGSVSTSYYPSWYQQTPGQAPRTLIYSTNTRSSGVPDRFSGSILGNKAALTITGAQADDESDYYCVLYMGSGISYVFGTGTKVTVL
notes: Fab expressed in E. coli; Plasmid A adds CH1 with His6 and Flag tags to the heavy chain; Plasmid E adds lambda CL to the light chain; also called G100K/G104T & S26A
On to B2, for which, in experiment [1], the “ECL signal” value worked out at 11700.

B3: Fab VH5-51_IGHD5-18*01>3_IGHJ4*01 G104T & V3-4_IGLJ1*01 (wildtype) (Fab, V domains shown)
VH: EVQLVQSGAEVKKPGESLKISCKGSGYSFTSYWIGWVRQMPGKGLEWMGIIYPGDSDTRYSPSFQGQVTISADKSISTAYLQWSSLKASDTAMYYCARRGYSYTYDYFDYWGQGTLVTVSS
VL: QTVVTQEPSFSVSPGGTVTLTCGLSSGSVSTSYYPSWYQQTPGQAPRTLIYSTNTRSSGVPDRFSGSILGNKAALTITGAQADDESDYYCVLYMGSGISYVFGTGTKVTVL
notes: Fab; Expressed in E. coli with CH1 (plasmid A, His6 and Flag tags) and lambda CL (plasmid E); also called G104T & Wildtype
As for B3, the ELISA signal in experiment [2] amounted to 0.18; in experiment [3] it was 0.17; in experiment [4], 0.17; in experiment [5], 0.19.

B4: Fab VH5-51_IGHD5-18*01>3_IGHJ4*01 G100K/G104T S28R (KT S28R) & V3-4_IGLJ1*01 (wildtype) (Fab, V domains shown)
VH: EVQLVQSGAEVKKPGESLKISCKGSGYRFTSYWIGWVRQMPGKGLEWMGIIYPGDSDTRYSPSFQGQVTISADKSISTAYLQWSSLKASDTAMYYCARRKYSYTYDYFDYWGQGTLVTVSS
VL: QTVVTQEPSFSVSPGGTVTLTCGLSSGSVSTSYYPSWYQQTPGQAPRTLIYSTNTRSSGVPDRFSGSILGNKAALTITGAQADDESDYYCVLYMGSGISYVFGTGTKVTVL
notes: Fab; Expressed in E. coli with CH1 (plasmid A, His6 and Flag tags) and lambda CL (plasmid E); also called H:KT S28R & L:wt
Regarding B4, the ELISA signal came to 0.2 in experiment [2], 0.23 in experiment [3], 0.26 in experiment [4] and 0.18 in experiment [5].

B5: Fab VH5-51_IGHD5-18*01>3_IGHJ4*01 G100K/G104T (H:KT) & V3-4_IGLJ1*01 S25A (Fab, V domains shown)
VH: EVQLVQSGAEVKKPGESLKISCKGSGYSFTSYWIGWVRQMPGKGLEWMGIIYPGDSDTRYSPSFQGQVTISADKSISTAYLQWSSLKASDTAMYYCARRKYSYTYDYFDYWGQGTLVTVSS
VL: QTVVTQEPSFSVSPGGTVTLTCGLASGSVSTSYYPSWYQQTPGQAPRTLIYSTNTRSSGVPDRFSGSILGNKAALTITGAQADDESDYYCVLYMGSGISYVFGTGTKVTVL
notes: Fab expressed in E. coli; Plasmid A adds CH1 with His6 and Flag tags to the heavy chain; Plasmid E adds lambda CL to the light chain; also called G100K/G104T & S25A
Take B5: in experiment [1], the “ECL signal” value came to 10200.

B6: Fab VH5-51_IGHD5-18*01>3_IGHJ4*01 G100K/G104T (H:KT) & V3-4_IGLJ1*01 P35A (Fab, V domains shown)
VH: EVQLVQSGAEVKKPGESLKISCKGSGYSFTSYWIGWVRQMPGKGLEWMGIIYPGDSDTRYSPSFQGQVTISADKSISTAYLQWSSLKASDTAMYYCARRKYSYTYDYFDYWGQGTLVTVSS
VL: QTVVTQEPSFSVSPGGTVTLTCGLSSGSVSTSYYASWYQQTPGQAPRTLIYSTNTRSSGVPDRFSGSILGNKAALTITGAQADDESDYYCVLYMGSGISYVFGTGTKVTVL
notes: Fab expressed in E. coli; Plasmid A adds CH1 with His6 and Flag tags to the heavy chain; Plasmid E adds lambda CL to the light chain; also called G100K/G104T & P35A
For the molecule B6, in experiment [1], the “ECL signal” value stood at 8260.

B7: Fab VH5-51_IGHD5-18*01>3_IGHJ4*01 G100K/G104T (H:KT) & V3-4_IGLJ1*01 S36A (Fab, V domains shown)
VH: EVQLVQSGAEVKKPGESLKISCKGSGYSFTSYWIGWVRQMPGKGLEWMGIIYPGDSDTRYSPSFQGQVTISADKSISTAYLQWSSLKASDTAMYYCARRKYSYTYDYFDYWGQGTLVTVSS
VL: QTVVTQEPSFSVSPGGTVTLTCGLSSGSVSTSYYPAWYQQTPGQAPRTLIYSTNTRSSGVPDRFSGSILGNKAALTITGAQADDESDYYCVLYMGSGISYVFGTGTKVTVL
notes: Fab expressed in E. coli; Plasmid A adds CH1 with His6 and Flag tags to the heavy chain; Plasmid E adds lambda CL to the light chain; also called G100K/G104T & S36A
For the molecule B7, the “ECL signal” value in experiment [1] was found to be 9690.

B8: Fab VH5-51_IGHD5-18*01>3_IGHJ4*01 G100K/G104T (H:KT) & V3-4_IGLJ1*01 G27A (Fab, V domains shown)
VH: EVQLVQSGAEVKKPGESLKISCKGSGYSFTSYWIGWVRQMPGKGLEWMGIIYPGDSDTRYSPSFQGQVTISADKSISTAYLQWSSLKASDTAMYYCARRKYSYTYDYFDYWGQGTLVTVSS
VL: QTVVTQEPSFSVSPGGTVTLTCGLSSASVSTSYYPSWYQQTPGQAPRTLIYSTNTRSSGVPDRFSGSILGNKAALTITGAQADDESDYYCVLYMGSGISYVFGTGTKVTVL
notes: Fab expressed in E. coli; Plasmid A adds CH1 with His6 and Flag tags to the heavy chain; Plasmid E adds lambda CL to the light chain; also called G100K/G104T & G27A
As for B8, in experiment [1], the “ECL signal” value was 10700.

B9: Fab VH5-51_IGHD5-18*01>3_IGHJ4*01 G100K/G104T G24T/S28R/G35V (KT TRV) & V3-4_IGLJ1*01 V91L/S96P S52Y (Fab, V domains shown)
VH: EVQLVQSGAEVKKPGESLKISCKTSGYRFTSYWIVWVRQMPGKGLEWMGIIYPGDSDTRYSPSFQGQVTISADKSISTAYLQWSSLKASDTAMYYCARRKYSYTYDYFDYWGQGTLVTVSS
VL: QTVVTQEPSFSVSPGGTVTLTCGLSSGSVSTSYYPSWYQQTPGQAPRTLIYYTNTRSSGVPDRFSGSILGNKAALTITGAQADDESDYYCLLYMGPGISYVFGTGTKVTVL
notes: Fab; Expressed in E. coli with CH1 (plasmid A, His6 and Flag tags) and lambda CL (plasmid E); also called H:KT TRV & L:LP S52Y
Turning to B9, the ELISA signal in experiment [2] turned out to be 0.56; in experiment [3], 0.72; in experiment [4], 0.9; in experiment [5], 0.41.

B10: Fab VH5-51_IGHD5-18*01>3_IGHJ4*01 G100K/G104T (H:KT) & V3-4_IGLJ1*01 S28A (Fab, V domains shown)
VH: EVQLVQSGAEVKKPGESLKISCKGSGYSFTSYWIGWVRQMPGKGLEWMGIIYPGDSDTRYSPSFQGQVTISADKSISTAYLQWSSLKASDTAMYYCARRKYSYTYDYFDYWGQGTLVTVSS
VL: QTVVTQEPSFSVSPGGTVTLTCGLSSGAVSTSYYPSWYQQTPGQAPRTLIYSTNTRSSGVPDRFSGSILGNKAALTITGAQADDESDYYCVLYMGSGISYVFGTGTKVTVL
notes: Fab expressed in E. coli; Plasmid A adds CH1 with His6 and Flag tags to the heavy chain; Plasmid E adds lambda CL to the light chain; also called G100K/G104T & S28A (light chain)
Consider B10, for which the “ECL signal” value in experiment [1] worked out at 11500.

B11: Fab VH5-51_IGHD5-18*01>3_IGHJ4*01 G100K/G104T (H:KT) & V3-4_IGLJ1*01 L24A (Fab, V domains shown)
VH: EVQLVQSGAEVKKPGESLKISCKGSGYSFTSYWIGWVRQMPGKGLEWMGIIYPGDSDTRYSPSFQGQVTISADKSISTAYLQWSSLKASDTAMYYCARRKYSYTYDYFDYWGQGTLVTVSS
VL: QTVVTQEPSFSVSPGGTVTLTCGASSGSVSTSYYPSWYQQTPGQAPRTLIYSTNTRSSGVPDRFSGSILGNKAALTITGAQADDESDYYCVLYMGSGISYVFGTGTKVTVL
notes: Fab expressed in E. coli; Plasmid A adds CH1 with His6 and Flag tags to the heavy chain; Plasmid E adds lambda CL to the light chain; also called G100K/G104T & L24A
For the molecule B11, the “ECL signal” value in experiment [1] worked out at 9630.

B12: Fab VH5-51_IGHD5-18*01>3_IGHJ4*01 G100K/G104T G24T/S28R/G35V (KT TRV) & V3-4_IGLJ1*01 V91L/S96P S52L (Fab, V domains shown)
VH: EVQLVQSGAEVKKPGESLKISCKTSGYRFTSYWIVWVRQMPGKGLEWMGIIYPGDSDTRYSPSFQGQVTISADKSISTAYLQWSSLKASDTAMYYCARRKYSYTYDYFDYWGQGTLVTVSS
VL: QTVVTQEPSFSVSPGGTVTLTCGLSSGSVSTSYYPSWYQQTPGQAPRTLIYLTNTRSSGVPDRFSGSILGNKAALTITGAQADDESDYYCLLYMGPGISYVFGTGTKVTVL
notes: Fab; Expressed in E. coli with CH1 (plasmid A, His6 and Flag tags) and lambda CL (plasmid E); also called H:KT TRV & L:LP S52L
Turning to B12, the ELISA signal was 0.58 in experiment [2], 0.78 in experiment [3], 1.02 in experiment [4] and 0.43 in experiment [5].

B13: Fab VH5-51_IGHD5-18*01>3_IGHJ4*01 G100K/G104T (H:KT) & V3-4_IGLJ1*01 S30A (Fab, V domains shown)
VH: EVQLVQSGAEVKKPGESLKISCKGSGYSFTSYWIGWVRQMPGKGLEWMGIIYPGDSDTRYSPSFQGQVTISADKSISTAYLQWSSLKASDTAMYYCARRKYSYTYDYFDYWGQGTLVTVSS
VL: QTVVTQEPSFSVSPGGTVTLTCGLSSGSVATSYYPSWYQQTPGQAPRTLIYSTNTRSSGVPDRFSGSILGNKAALTITGAQADDESDYYCVLYMGSGISYVFGTGTKVTVL
notes: Fab expressed in E. coli; Plasmid A adds CH1 with His6 and Flag tags to the heavy chain; Plasmid E adds lambda CL to the light chain; also called G100K/G104T & S30A
For the molecule B13, the “ECL signal” value in experiment [1] is 10300.

B14: Fab VH5-51_IGHD5-18*01>3_IGHJ4*01 G100K/G104T (H:KT) & V3-4_IGLJ1*01 S32A (Fab, V domains shown)
VH: EVQLVQSGAEVKKPGESLKISCKGSGYSFTSYWIGWVRQMPGKGLEWMGIIYPGDSDTRYSPSFQGQVTISADKSISTAYLQWSSLKASDTAMYYCARRKYSYTYDYFDYWGQGTLVTVSS
VL: QTVVTQEPSFSVSPGGTVTLTCGLSSGSVSTAYYPSWYQQTPGQAPRTLIYSTNTRSSGVPDRFSGSILGNKAALTITGAQADDESDYYCVLYMGSGISYVFGTGTKVTVL
notes: Fab expressed in E. coli; Plasmid A adds CH1 with His6 and Flag tags to the heavy chain; Plasmid E adds lambda CL to the light chain; also called G100K/G104T & S32A
On to B14, for which the “ECL signal” value in experiment [1] was 10400.

Values taken from US20120316071A1 (published 2012).
